The text below walks through data of paper PMC10397247.

The target of one experiment is T1, 4H3381-bA.
T1 chain: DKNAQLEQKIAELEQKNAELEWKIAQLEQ
Description: two-hybrid library CCNG1.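 Also: natural log of median RNA to DNA barcode read ratio; higher means stronger binding.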

The target of another experiment is T2, 4H349-bA.
T2 chain: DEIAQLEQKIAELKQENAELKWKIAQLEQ
Description: two-hybrid library CCNG1.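 Also: natural log of median RNA to DNA barcode read ratio; higher means stronger binding.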

A further experiment concerns the target T3, 4H4001-bA.
T3 chain: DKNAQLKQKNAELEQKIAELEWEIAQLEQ
Kind of experiment: two-hybrid library CCNG1.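 Also: natural log of median RNA to DNA barcode read ratio; higher means stronger binding.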

The next experiment has as its target T4, 4H56-bA.
T4 chain: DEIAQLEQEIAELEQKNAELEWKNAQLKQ
Description: two-hybrid library CCNG1.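 Also: natural log of median RNA to DNA barcode read ratio; higher means stronger binding.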

Another experiment has as its target T5, 4H730-bA.
T5 chain: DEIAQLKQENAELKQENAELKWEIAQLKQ
Description: two-hybrid library CCNG1.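 Also: natural log of median RNA to DNA barcode read ratio; higher means stronger binding.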

Another experiment concerns the target T6, 4H796-bA.
T6 chain: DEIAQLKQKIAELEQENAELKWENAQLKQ
Description: two-hybrid library CCNG1.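 Also: natural log of median RNA to DNA barcode read ratio; higher means stronger binding.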

The next experiment addresses T7, 4H932-bA.
T7 chain: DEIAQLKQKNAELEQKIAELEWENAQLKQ
Kind of experiment: two-hybrid library CCNG1.

The next experiment has as its target T8, 4H949-bA.
T8 chain: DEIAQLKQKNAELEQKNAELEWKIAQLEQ
Kind of experiment: two-hybrid library CCNG1.

The next experiment addresses T9, O9-bH.
T9 chain: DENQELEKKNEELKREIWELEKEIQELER
Kind of experiment: two-hybrid library CCNG1. Particulars: mean of both orientations.

For a further experiment, the target named is T10, APC4011-AA.
T10 chain: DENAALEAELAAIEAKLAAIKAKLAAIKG
Description: two-hybrid library CCmax.

A further experiment addresses T11, APC4264-AA.
T11 chain: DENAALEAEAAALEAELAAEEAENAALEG
Description: two-hybrid library CCmax. Particulars: mean of both orientations.

The target in a further experiment is T12, APC4436-AA.
T12 chain: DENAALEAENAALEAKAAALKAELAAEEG
Description: two-hybrid library CCmax. The settings on record: mean of both orientations.

The next experiment has as its target T13, APC5383-AA.
T13 chain: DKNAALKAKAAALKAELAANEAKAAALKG
Description: two-hybrid library CCmax. The settings on record: mean of both orientations.

Another experiment addresses T14, APC6108-AA.
T14 chain: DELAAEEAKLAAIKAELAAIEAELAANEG
Description: two-hybrid library CCmax. The settings on record: mean of both orientations.

The target of the next experiment is T15, APC7099-AA.
T15 chain: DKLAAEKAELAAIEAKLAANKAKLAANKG
Kind of experiment: two-hybrid library CCmax. The settings on record: mean of both orientations.

A further experiment addresses T16, APC8191-AA.
T16 chain: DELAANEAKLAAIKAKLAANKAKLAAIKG
Kind of experiment: two-hybrid library CCmax.

For the next experiment, the target named is T17, APC8910-AA.
T17 chain: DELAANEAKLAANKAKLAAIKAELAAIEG
Kind of experiment: two-hybrid library CCmax. The settings on record: mean of both orientations.

In another experiment the target is T18, APC9096-AA.
T18 chain: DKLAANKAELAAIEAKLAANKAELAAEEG
Kind of experiment: two-hybrid library CCmax. Particulars: mean of both orientations.

The target of another experiment is T19, APC9319-AA.
T19 chain: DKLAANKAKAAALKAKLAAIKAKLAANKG
Kind of experiment: two-hybrid library CCmax. The settings on record: mean of both orientations.

As to DKNAQLEQKIAELEQKNAELEWKIAQLEQ [4H3381-bA], the interaction score with 4H3381-bA was 0.241; with 4H349-bA, -1.06; with 4H4001-bA it was -0.563; with 4H56-bA, -0.961; with 4H730-bA, -1.47; with 4H796-bA, -0.941. The interaction score in the experiment with 4H932-bA is -0.845; in the experiment with 4H949-bA, -1.1.

In turn, DENQELEKKNEELKREIWELEKEIQELER [O9-bH] displayed an interaction score with O9-bH of -0.295.

Consider DENAALEAELAAIEAKLAAIKAKLAAIKG [APC4011-AA], for which the interaction score is 2.04 with APC4011-AA; -1.72 in the experiment with APC4264-AA; -1.48 with APC4436-AA; -1.52 with APC5383-AA; 0.352 with APC6108-AA; -1.45 in the experiment with APC7099-AA. The interaction score is -1.55 in the experiment with APC8191-AA, -1.43 in the experiment with APC8910-AA, -1.88 with APC9096-AA and -1.27 with APC9319-AA.
